For data set [1], the target named is T1, human GDP-mannose 4,6-dehydratase (hGMD) (Homo sapiens, UniProt O60547).
T1 construct: gene GMDS; purified enzyme, wild type and point variants; homodimer in crystals (two to four homodimers per asymmetric unit); construct borders, tags and host only in supplement
T1 sequence (O60547 2-372 limits assumed): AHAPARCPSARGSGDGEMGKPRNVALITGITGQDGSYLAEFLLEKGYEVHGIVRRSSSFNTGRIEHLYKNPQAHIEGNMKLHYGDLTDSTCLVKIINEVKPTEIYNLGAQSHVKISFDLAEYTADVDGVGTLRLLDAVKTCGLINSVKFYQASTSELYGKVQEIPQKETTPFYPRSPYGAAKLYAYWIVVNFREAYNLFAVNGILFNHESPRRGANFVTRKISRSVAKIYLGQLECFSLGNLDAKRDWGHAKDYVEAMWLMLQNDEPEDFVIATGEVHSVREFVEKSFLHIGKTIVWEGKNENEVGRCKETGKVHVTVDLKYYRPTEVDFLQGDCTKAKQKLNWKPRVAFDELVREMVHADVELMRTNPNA
The data set can be described thus: isothermal titration calorimetry. It is filed as binding.

In data set [2] the target is T2, human GDP-mannose 4,6-dehydratase (hGMD) (Homo sapiens, UniProt O60547, E157Q).
T2 construct: gene GMDS; purified enzyme, wild type and point variants; homodimer in crystals (two to four homodimers per asymmetric unit); construct borders, tags and host only in supplement
T2 sequence (O60547 2-372 E157Q limits assumed): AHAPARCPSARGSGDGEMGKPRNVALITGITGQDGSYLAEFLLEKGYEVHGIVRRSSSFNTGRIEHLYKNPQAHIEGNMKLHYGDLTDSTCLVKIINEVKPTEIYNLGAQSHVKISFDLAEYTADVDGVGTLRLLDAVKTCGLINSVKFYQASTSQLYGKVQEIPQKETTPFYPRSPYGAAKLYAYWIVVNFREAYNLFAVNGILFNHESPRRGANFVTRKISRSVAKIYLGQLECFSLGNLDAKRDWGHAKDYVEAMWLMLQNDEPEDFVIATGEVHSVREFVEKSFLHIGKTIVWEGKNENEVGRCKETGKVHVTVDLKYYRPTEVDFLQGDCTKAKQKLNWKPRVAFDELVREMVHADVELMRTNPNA
The data set can be described thus: X-ray crystal structure, […] Å. The note with it: GDP-mannose also bound; NADP+ binding site.

Substrate in data set [3]: Nc1nc2c(ncn2[C@@H]2O[C@H](COP(=O)(O)OP(=O)(O)O[C@H]3O[C@H](CO)[C@@H](O)[C@H](O)[C@@H]3O)[C@@H](O)[C@H]2O)c(=O)[nH]1
The data set can be described thus: initial rate measurements. It is filed as biochemical, Homo sapiens. As to conditions: 37 °C. The text has this:
initial rate measurements on human GDP-mannose 4,6-dehydratase (hGMD)

Broadly, the Kd is a measure of binding affinity in units of concentration. A higher Kd goes with lower affinity. The Km is the substrate concentration at which the rate is half of its maximum. The kcat is the maximal rate divided by the concentration of active sites.

As to `Nc1nc2c(ncn2[C@@H]2O[C@H](COP(=O)(O)OP(=O)(O)O[C@H]3O[C@H](CO)[C@@H](F)[C@H](O)[C@@H]3O)[C@@H](O)[C@H]2O)c(=O)[nH]1` [GDP-4″-deoxy-4″-fluoro-mannose], the Kd in data set [1] was found to be 1600 nM. Take `NC(=O)c1ccc[n+]([C@@H]2O[C@H](COP(=O)(O)OP(=O)(O)OC[C@H]3O[C@@H](n4cnc5c(N)ncnc54)[C@H](OP(=O)(O)O)[C@@H]3O)[C@@H](O)[C@H]2O)c1` [NADP^+]: the “X-ray crystal structure, 1.47 Å” value in data set [2] was “each monomer has bound GDP-mannose (purple) and NADP^+ (yellow)”.

B1: human GDP-mannose 4,6-dehydratase (hGMD) (Homo sapiens) (protein)
chain: AHAPARCPSARGSGDGEMGKPRNVALITGITGQDGSYLAEFLLEKGYEVHGIVRRSSSFNTGRIEHLYKNPQAHIEGNMKLHYGDLTDSTCLVKIINEVKPTEIYNLGAQSHVKISFDLAEYTADVDGVGTLRLLDAVKTCGLINSVKFYQASTSELYGKVQEIPQKETTPFYPRSPYGAAKLYAYWIVVNFREAYNLFAVNGILFNHESPRRGANFVTRKISRSVAKIYLGQLECFSLGNLDAKRDWGHAKDYVEAMWLMLQNDEPEDFVIATGEVHSVREFVEKSFLHIGKTIVWEGKNENEVGRCKETGKVHVTVDLKYYRPTEVDFLQGDCTKAKQKLNWKPRVAFDELVREMVHADVELMRTNPNA
notes: purified enzyme, wild type and point variants; homodimer in crystals (two to four homodimers per asymmetric unit); construct borders, tags and host only in supplement
B1: in data set [3], the Michaelis constant (Km) stood at 8 ± 1 µM and the kcat was determined as 0.42 ± 0.08 s⁻¹.

B2: human GDP-mannose 4,6-dehydratase (hGMD) (Homo sapiens; S156A) (protein)
chain: AHAPARCPSARGSGDGEMGKPRNVALITGITGQDGSYLAEFLLEKGYEVHGIVRRSSSFNTGRIEHLYKNPQAHIEGNMKLHYGDLTDSTCLVKIINEVKPTEIYNLGAQSHVKISFDLAEYTADVDGVGTLRLLDAVKTCGLINSVKFYQASTAELYGKVQEIPQKETTPFYPRSPYGAAKLYAYWIVVNFREAYNLFAVNGILFNHESPRRGANFVTRKISRSVAKIYLGQLECFSLGNLDAKRDWGHAKDYVEAMWLMLQNDEPEDFVIATGEVHSVREFVEKSFLHIGKTIVWEGKNENEVGRCKETGKVHVTVDLKYYRPTEVDFLQGDCTKAKQKLNWKPRVAFDELVREMVHADVELMRTNPNA
notes: as for B1
Consider B2, for which, in data set [3], the Km amounted to 127 ± 5 µM and the kcat turned out to be 0.05 ± 0.01 s⁻¹.

The values above are taken from article PMC6454399, “A Parsimonious Mechanism of Sugar Dehydration by Human GDP-Mannose-4,6-dehydratase” (ACS Catalysis, 2019).
